# Data reported in patent US20250215092A1 (ZHEJIANG NANOMAB TECHNOLOGY CENTER, published 2025).
# Substitutions are numbered along the chain they refer to.
# B1: E002.1 (VHH)
# VHH: EVQLVESGGGLVQPGGSLRLSCAASGFTFSDYAVSWYRQAPGKEREFVSRITGTGETSRYEDSVKGRFTISRDNSKNTAYLQMNSLRAEDTAVYYCSIYHPPRDYWGQGTQVTVSS
# notes: Humanized VHH; also called humanized variant of E002
# B2: E002.2 (VHH)
# VHH: B1 VHH with S75V
# notes: as for B1
# B3: E002.4 (VHH)
# VHH: B1 VHH with S49A
# notes: as for B1
# B4: E002.5 (VHH)
# VHH: B1 VHH with S49A, S75V
# notes: as for B1
# B5: E002.6 (VHH)
# VHH: B1 VHH with S49A, T69A
# notes: as for B1
# B6: E002.7 (VHH)
# VHH: B1 VHH with S49A, T69A, S75V
# notes: as for B1
# B7: E005.1 (VHH)
# VHH: QVQLVESGGGLVKPGGSLRLSCAASGFAFSDYTMRWHRQAAGKELELVSYITSAGDIIKYANSVRGRFTISRDNAKNTLYLQMNSLRAEDTAVYRCNALVSASVRASDYWGQGTLVTVSS
# notes: Humanized VHH; also called humanized variant of E005
# B8: E005.2 (VHH)
# VHH: B7 VHH with S49A, T78S
# notes: as for B7
# B9: E005.3 (VHH)
# VHH: B7 VHH with S49A
# notes: as for B7
# B10: E005.4 (VHH)
# VHH: B7 VHH with A41P, T78S
# notes: as for B7
# B11: E005.5 (VHH)
# VHH: B7 VHH with A41P, S49A
# notes: as for B7
# B12: E005.6 (VHH)
# VHH: B7 VHH with S49A, T52S
# notes: as for B7
# B13: E005.7 (VHH)
# VHH: B7 VHH with A41P, S49A, T78S
# notes: as for B7
# B14: E005.8 (VHH)
# VHH: B7 VHH with A23E, S49A
# notes: as for B7
# B15: E008.1 (VHH)
# VHH: EVQLVESGGGLVQPGGSLRLSCAASGLPLLDYAIGWFRQAPGKEREAVSAISISEGSTYYTDSVRGRFTISRDNSKNTVYLQMNSLRAEDTAVYYCAADKTDIGFWLLVGGAGGGEVRYEYWGQGTQVTVSS
# notes: Humanized VHH; also called humanized variant of E008
# B16: E008.2 (VHH)
# VHH: B15 VHH with T78K, V79L
# notes: as for B15
# B17: E008.3 (VHH)
# VHH: B15 VHH with Q82R
# notes: as for B15
# B18: E008.4 (VHH)
# VHH: B15 VHH with S75N
# notes: as for B15
# B19: E008.5 (VHH)
# VHH: B15 VHH with T78K
# notes: as for B15
# B20: E008.6 (VHH)
# VHH: B15 VHH with S75N, T78K
# notes: as for B15
# B21: E008.9 (VHH)
# VHH: B15 VHH with R45L, S75N, T78K
# notes: as for B15
# B22: E008.10 (VHH)
# VHH: B15 VHH with A24S, T78K, Q82R
# notes: as for B15
# B23: E006.1 (VHH)
# VHH: EVQLVESGGGLVQPGGSLRLSCAASGFTFDTYTTSWERQAPGKEREMVAVLATTGGKPYYVESVKGRFTISRDNSKNTVYLQMNSLRAEDTAVYYCKATSRSPVNPHNYSGQGTLVTVSS
# notes: Humanized VHH; also called humanized variant of E006
# B24: E006.2 (VHH)
# VHH: B23 VHH with N74A
# notes: as for B23
# B25: E006.3 (VHH)
# VHH: B23 VHH with N74A, K76E
# notes: as for B23
# B26: E006.4 (VHH)
# VHH: B23 VHH with N74A, K76E, T78A
# notes: as for B23
# B27: E006.5 (VHH)
# VHH: B23 VHH with N74A, K76E, T78A, S85N
# notes: as for B23
# B28: E006.6 (VHH)
# VHH: B23 VHH with N74A, K76E, T78A, Y80T, S85N
# notes: as for B23
# B29: E006.7 (VHH)
# VHH: B23 VHH with A49S, N74A, K76E, T78A
# notes: as for B23
# B30: E006.8 (VHH)
# VHH: B23 VHH with A23T, A49S, N74A, K76E, T78A, Y80T
# notes: as for B23
# Molecular target: T1, human EGFR.His antigen (Acro, Cat #EGR-H522a) (human, UniProt P00533 25-645)
# T1 construct: extracellular domain; Bought protein; also called EGFR his tag protein; full-length EGFR extracellular domain protein; not shown: His tag
# Assay: SPR, human EGFR.His
Binder,Kd [nM],koff [s⁻¹],kon [M⁻¹ s⁻¹]
B1,5,0.00039,78000
B2,5.1,0.00068,130000
B3,11,0.00045,43000
B4,13,0.00055,43000
B5,9.4,0.00038,40000
B6,11,0.00046,40000
B7,3.3,3.5e-05,11000
B8,1.2,2.1e-05,18000
B9,2.7,1.7e-05,6100
B10,4.8,9.6e-06,2000
B11,0.74,1.1e-05,15000
B12,2.5,4.1e-05,16000
B13,0.71,2.5e-06,3500
B14,2.1,2.7e-05,13000
B15,18,0.0087,480000
B16,40,0.021,540000
B17,5.8,0.028,4.9e+06
B18,21,0.0093,450000
B19,24,0.012,510000
B20,32,0.013,430000
B21,25,0.012,490000
B22,82,0.029,360000
B23,39,0.00079,20000
B24,41,0.00072,17000
B25,18,0.0004,22000
B26,13,0.00032,25000
B27,13,0.00031,24000
B28,11,0.00032,29000
B29,14,0.00033,24000
B30,15,0.0004,27000
